Tests used:
[1] = substrate: SCS peptide, 1-pHis form; assay: BLI; biotinylated pHis peptides (20 nM) on streptavidin biosensors, Fab in solution at varying concentrations; 50 mM Hepes pH 8.0, 150 mM NaCl, 0.05% Tween-20, 0.2% BSA; Octet RED96e; global fit to a 1:1 Langmuir model
[2] = biological target: T1, Common-His peptide, 1-pHis form; assay: as above
T1 sequence (peptide, biotin on the N-terminus; C-terminal amide; 1-phosphohistidine at position 5): GEQLHDLNA

[3] = biological target: T2, ACLY peptide, 1-pHis form; assay: as above
T2 sequence (peptide, biotin on the N-terminus; C-terminal amide; 1-phosphohistidine at position 5): VQFGHAGAC

[4] = biological target: T3, NM23 peptide, 1-pHis form; assay: as above
T3 sequence (peptide, biotin on the N-terminus; C-terminal amide; 1-phosphohistidine at position 5): RNIIHGSDS

[5] = test system: ACLYana-1-pHis peptide (AGAG-1-pHis-AGAG); assay: BLI binding kinetics of 1-pHis Fabs with affinity-purified pHis peptide; conditions: for ka / kd / Kd: BLI, 1:1 Langmuir global fit, triplicate; for ka / kd: affinity-purified ACLYana-1-pHis peptide; for Kd: ACLYana phosphorylated with phosphoramidate (8 h, 23 °C), 1-pHis isomer affinity-purified on 1-pHis IgG column, immobilized on streptavidin biosensors, Hepes pH 8.0; for affinity to 1-pHis peptides, times weaker than the 1-pTza peptides: ratio of BLI KD, 1-pHis versus 1-pTza peptide
Protocol: (§1) Biolayer interferometry (BLI) studies were performed to determine the relative affinity of pHis Fabs to in situ phosphorylated His peptides versus the phosphomimetic substrates. The N-terminally biotinylated peptides were immobilized on streptavidin biosensors and the rate of association (ka) and dissociation (kd) were determined by varying the pHis Fab concentration. Equilibrium dissociation constants (KD) were determined by fitting the experimental data to a 1:1 Langmuir binding model. ACLYana-1-pTza and ACLYana-3-pTza peptides were used to determine affinity to 1-pHis and 3-pHis Fabs, respectively (Fig. 3 A–E and Table 1). […] The two isomers were separated from each other by passing the reaction through affinity columns containing 1-pHis mAbs using SC1-1 or SC50-3 IgGs or 3-pHis mAbs using SC39-4, SC44-8, and SC56-2 IgGs. The eluates thus contained either predominantly 1-pHis or 3-pHis peptides. These peptides were used to determine the affinity to their respective isomer class of pHis Fabs (Fig. 3 F–J, Table 1, and SI Appendix, Fig. S5). […] This experimental observation is well supported by the higher number of hydrogen bonds that support the SC44-8:3-pTza interaction compared to other pHis Fabs (SI Appendix, Table S5). […] There are at least three reasons for the lower affinity of the mAbs for pHis peptides compared to pTza peptides: The continuous hydrolysis of phosphate from the pHis peptides during the course of the experiment (SI Appendix, Fig. S6), a reduction in the number of hydrogen bond interactions due to one less nitrogen in the imidazole ring compared to triazolyl ring (Fig. 4 and SI Appendix, Fig. S8), and inherently different electronic properties of the imidazole and triazolyl rings in His and Tza, respectively ([20]).
(§2) Fig. 3. Binding kinetics of pHis Fabs with cognate pTza and pHis peptides. BLI studies of immobilized peptides (ACLYana-1/3-pTza and phosphorylated ACLYana) with varying concentrations of the pHis Fabs were carried out in triplicate on an Octet Red96e instrument (FortéBio). SC1-1 (A) and SC50-3 (B) pHis Fab interaction with their ACLYana-1-pTza peptides. SC39-4 (C), SC44-8 (D), and SC56-2 (E) pHis Fabs interactions with ACLYana-3-pTza peptides. SC1-1 (F), SC50-3 (G), SC39-4 (H), SC44-8 (I), and SC56-2 (J) pHis Fabs interactions with their affinity-purified ACLYana-pHis peptides are represented, Right. The experimental data are represented in the black dashed lines and the nonlinear least-squares fitting was represented in the red continuous lines. The χ^2 for the goodness of fit is under 1.0 for the all the plots.
(§3) The binding kinetics of pHis Fabs with the peptides (pTza and pHis) were evaluated with an Octet RED96e (FortéBio). Streptavidin-coated biosensors (FortéBio) were presoaked in buffer containing 50 mM Hepes pH 8.0, 150 mM NaCl, 0.05% Tween-20, and 0.2% BSA for 15 min. The biotinylated pTza peptides or pHis peptides (20 nM) with and without phosphoramidate treatment were coated onto these streptavidin biosensors and analyzed for their binding to varying concentrations of the pHis Fabs with an association time of 120 s and dissociation time of 200 s. The entire set of experiments was repeated three times. The data were analyzed using the Octet software (FortéBio) and the rates of association and dissociation were obtained by global fitting data to the 1:1 Langmuir interaction model.
Supplementary methods and materials
Peptide Synthesis. Peptides used for the crystallization were synthesized at Sanofi as described in Fuhs et al. (1). Peptides used in the DSF and BLI experiments were synthesized by the Salk Peptide Synthesis Core. These peptides were N-terminally biotinylated and C-terminally amidated. They were synthesized using standard Fmoc chemistry on a Gyros Protein Technologies Tribute peptide synthesizer with UV monitoring. Following the deprotection, peptides were analyzed by mass spectrometry and analytical HPLC by the Proteomics Core at […]
Salk. […]

[6] = biological target: ACLYana-1-pTza peptide (AGAG-1-pTza-AGAG); assay: BLI binding kinetics of 1-pHis Fabs with cognate pTza peptide; conditions: triplicate; for Kd: BLI Octet RED96e, N-terminally biotinylated peptide (20 nM) on streptavidin biosensors, varying Fab concentration, 50 mM Hepes pH 8.0, 150 mM NaCl, 0.05% Tween-20, 0.2% BSA, association 120 s, dissociation 200 s, global fit 1:1 Langmuir; for ka / kd: BLI, immobilized biotinylated ACLYana-1-pTza, 1:1 Langmuir global fit
Protocol: as §1, §2, §3

[7] = biological target: ACLYana-1-pTza peptide (AGAG-1-pTza-AGAG); assay: BLI; N-terminally biotinylated peptides (20 nM) on streptavidin biosensors, varying concentrations of Fab in solution; 50 mM Hepes pH 8.0, 150 mM NaCl, 0.05% Tween-20, 0.2% BSA; association 120 s, dissociation 200 s; global fit to a 1:1 Langmuir model; Octet RED96e; in triplicate
[8] = biological target: T4, ACLYana-1-pHis peptide (AGAG-1-pHis-AGAG); assay: as above
T4 sequence (peptide, 1-phosphohistidine at position 5; biotin on the N-terminus): AGAGHAGAG

B1: SC50-3 Fab (Fab, V domains shown)
VH: QSVKESEGGLFKPTDTLTLTCTASGFSLNGYGVIWVRQAPGKGLEWIGSAGAYGRIYYPNWARSRATITRNTNLNTVSLKMTSLTAADTATYFCARRTNVSTSVGFDSWGPGTLVTVSS
VL: DMTQTPSSKSVPVGDTVTINCQASESVYSNNRLSWFQQKPGQPPKLLIYLVSTLASGVPSRFKGSGSGTQFTLTISDVVCDDAATYYCVGYKSSTTDGLAFGGGTEVVVK
B1 was tested, and the Kd [1] was 411 nM, the koff [1] was 0.0147 s⁻¹ and the kon [1] was 35800 M⁻¹ s⁻¹. The Kd [2] was 336 nM, the koff [2] was 0.0243 s⁻¹ and the kon [2] was 72200 M⁻¹ s⁻¹. It also gave a Kd [3] of 194 nM, a koff [3] of 0.0247 s⁻¹ and a kon [3] of 127000 M⁻¹ s⁻¹. The Kd [4] was 362 nM, the koff [4] was 0.0176 s⁻¹ and the kon [4] was 48500 M⁻¹ s⁻¹.

B2: SC1-1: Fab of rabbit monoclonal antibody that recognizes 1-pHis (antibody, V domains shown)
VH: QSVEESEGGLFKPTDTLTLTCTASGFSLSGHGVIWVRQAPGKGLEWIGSAGAYGRIYYASWAKSRSTITRNTNLNTVTLKMTSLTAADTATYFCARRSDVGTSVGFDSWGPGTLVTISS
VL: DMTQTPSSKSVPVGDTVTINCQASESVYSNNRLSWFQQKPGQPPKLLIYLVSTLASGVPSRFKGSGSGTQFTLTISDVVCDDAATYYCVGYKSSTTDGLAFGGGTEVVVK
Work on B2 yielded a ka [5] of 97300 ± 551 M⁻¹ s⁻¹, a kd [5] of 0.00925 ± 1.33e-05 s⁻¹ and a Kd [5] of 95.1 nM. For the same molecule, the “affinity to 1-pHis peptides, times weaker than the 1-pTza peptides” value [5] was “two to four times weaker”, the Kd [6] was 24.8 nM and the ka [6] was 81300 ± 347 M⁻¹ s⁻¹. The kd [6] was 0.00199 ± 3.19e-06 s⁻¹.

B3: SC50-3: Fab of rabbit 1-pHis monoclonal antibody, expressed with SC50-3 heavy chain and SC1-1 light chain (antibody, V domains shown)
VH: QSVKESEGGLFKPTDTLTLTCTASGFSLNGYGVIWVRQAPGKGLEWIGSAGAYGRIYYPNWARSRATITRNTNLNTVSLKMTSLTAADTATYFCARRTNVSTSVGFDSWGPGTLVTVSS
VL: DMTQTPSSKSVPVGDTVTINCQASESVYSNNRLSWFQQKPGQPPKLLIYLVSTLASGVPSRFKGSGSGTQFTLTISDVVCDDAATYYCVGYKSSTTDGLAFGGGTEVVVK
B3 was tested, and the ka [5] was 175000 ± 1010 M⁻¹ s⁻¹, the kd [5] was 0.00494 ± 1.06e-05 s⁻¹ and the Kd [5] was 28.3 nM. The “affinity to 1-pHis peptides, times weaker than the 1-pTza peptides” value [5] was “two to four times weaker”, the Kd [6] was 16 nM and the ka [6] was 85100 ± 303 M⁻¹ s⁻¹. The kd [6] was 0.00136 ± 3.19e-06 s⁻¹.

B4: SC50-3 Fab (SC50-3 heavy chain with SC1-1 light chain) (Fab, V domains shown)
VH: QSVKESEGGLFKPTDTLTLTCTASGFSLNGYGVIWVRQAPGKGLEWIGSAGAYGRIYYPNWARSRATITRNTNLNTVSLKMTSLTAADTATYFCARRTNVSTSVGFDSWGPGTLVTVSS
VL: DMTQTPSSKSVPVGDTVTINCQASESVYSNNRLSWFQQKPGQPPKLLIYLVSTLASGVPSRFKGSGSGTQFTLTISDVVCDDAATYYCVGYKSSTTDGLAFGGGTEVVVK
For B4, the Kd [7] was 16 nM, the koff [7] was 0.00136 s⁻¹ and the kon [7] was 85100 M⁻¹ s⁻¹. For the same molecule, the Kd [8] was 28.3 nM, the koff [8] was 0.00494 s⁻¹ and the kon [8] was 175000 M⁻¹ s⁻¹.

Source: PMC8017925, “Structural basis for differential recognition of phosphohistidine-containing peptides by 1-pHis and 3-pHis monoclonal antibodies” (Proceedings of the National Academy of Sciences of the …, 2021)
